Measured values from patent publication US20230149515A1, “INHIBITION OF SARS-COV-2 VIRAL ENTRY THROUGH ORAL ADMINISTRATION OF L[…] USES THEREOF” (priority 2020, published 2023).

System: SARS-CoV-2
Assay type: cell-based

B1: lactoferrin (protein, UniProt P02788 20-710, looked up)
Lactotransferrin: GRRRSVQWCAVSQPEATKCFQWQRNMRKVRGPPVSCIKRDSPIQCIQAIAENRADAVTLDGGFIYEAGLAPYKLRPVAAEVYGTERQPRTHYYAVAVVKKGGSFQLNELQGLKSCHTGLRRTAGWNVPIGTLRPFLNWTGPPEPIEAAVARFFSASCVPGADKGQFPNLCRLCAGTGENKCAFSSQEPYFSYSGAFKCLRDGAGDVAFIRESTVFEDLSDEAERDEYELLCPDNTRKPVDKFKDCHLARVPSHAVVARSVNGKEDAIWNLLRQAQEKFGKDKSPKFQLFGSPSGQKDLLFKDSAIGFSRVPPRIDSGLYLGSGYFTAIQNLRKSEEEVAARRARVVWCAVGEQELRKCNQWSGLSEGSVTCSSASTTEDCIALVLKGEADAMSLDGGYVYTAGKCGLVPVLAENYKSQQSSDPDPNCVDRPVEGYLAVAVVRRSDTSLTWNSVKGKKSCHTAVDRTAGWNIPMGLLFNQTGSCKFDEYFSQSCAPGSDPRSNLCALCIGDEQGENKCVPNSNERYYGYTGAFRCLAENAGDVAFVKDVTVLQNTDGNNNEAWAKDLKLADFALLCLDGKRKPVTEARSCHLAMAPNHAVVSRMDKVERLKQVLLHQQAKFGRNGSDCPDKFCLFQSETKNLLFNDNTECLARLHGKTTYEKYLGPQYVAGITNLKKCSTSPLLEACEFLRK
- efficacy in preventing SARS-CoV-2 infection (Huh-7 cells, FIG. 2): ~100%
- inhibition of SARS-CoV-2 infection (efficacy) (all concentrations of lactoferrin tested, FIG. 3B): 100%
- reduction in SARS-Cov-2 synctitia (dose response study, all concentrations tested ranging from 200 ug/mL to 12.5 ug/mL, compared to viral control, FIG. 3A): > 95%
